2 substances from paper PMC5849714, “Direct coupling of detergent purified human mGlu5 receptor to the heterotrimeric G proteins Gq and Gs” (Scientific Reports, 2018) can be followed below.

For orientation: stoichiometry N means the number of molecules, sites or subunits per partner or assembly.

Test [1] concerns the target mGlu5-Δ856 (construct for large-scale purification, devoid of eGFP) (human) (UniProt P41594).
Test [2] shares this target. Nature of the test: SEC; purified receptor on Superose 6 increase in MNG3/CHS. (In general: SEC sorts molecules by how far they enter the pores of the column.)

Sequence of Gαqβ1γ2 (P50148 whole entry): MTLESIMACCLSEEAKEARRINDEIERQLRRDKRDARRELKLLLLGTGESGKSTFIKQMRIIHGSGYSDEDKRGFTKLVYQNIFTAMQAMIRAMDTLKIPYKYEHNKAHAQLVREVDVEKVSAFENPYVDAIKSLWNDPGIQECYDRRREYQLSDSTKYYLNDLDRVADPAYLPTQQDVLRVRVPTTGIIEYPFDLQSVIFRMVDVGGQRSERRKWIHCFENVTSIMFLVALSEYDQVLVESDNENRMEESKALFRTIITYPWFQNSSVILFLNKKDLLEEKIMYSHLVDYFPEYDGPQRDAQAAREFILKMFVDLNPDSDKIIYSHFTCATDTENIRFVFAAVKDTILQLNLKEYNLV
Sequence of Gαqβ1γ2 (P62873 whole entry): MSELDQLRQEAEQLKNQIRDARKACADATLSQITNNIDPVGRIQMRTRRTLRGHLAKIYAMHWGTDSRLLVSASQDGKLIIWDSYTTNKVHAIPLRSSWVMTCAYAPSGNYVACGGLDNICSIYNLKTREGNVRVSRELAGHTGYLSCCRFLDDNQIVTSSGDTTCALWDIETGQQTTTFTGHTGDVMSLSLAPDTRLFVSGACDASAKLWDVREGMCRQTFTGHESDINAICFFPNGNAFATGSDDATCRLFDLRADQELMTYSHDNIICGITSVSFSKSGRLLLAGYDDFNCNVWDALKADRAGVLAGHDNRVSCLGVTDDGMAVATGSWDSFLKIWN
Sequence of Gαqβ1γ2 (P59768 whole entry): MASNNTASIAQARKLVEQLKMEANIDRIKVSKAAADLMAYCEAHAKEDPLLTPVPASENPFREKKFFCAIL

For “Gαqβ1γ2 (from UniProt P50148 1-359; P62873 1-340; P59768 1-71) (complex)”, the Bodipy-FL GTPγS fluorescence, purified receptor in detergent, glutamate and VU0424465 together: increase of the maximum response in test [1] is 30%.

In turn, “mGlu5-Δ856 (construct for large-scale purification, devoid of eGFP) (from UniProt P41594-2 21-856) (receptor)” registered a stoichiometry N in test [2] of 2.
